Starred links: 1 amine or outer side, 2 acyl side, 3 side chain; linkers in the order of their positions; H or OH if unused. Positions of bridges follow the written chain, without caps; N, C: chain ends. Non-standard residues stand in square brackets, D forms with d. Groups on a side chain read outwards from the residue. *: point of attachment. Trp(1-Me) = Cn1cc(C[C@H](N)C(=O)O)c2ccccc21; C18 diacid = O=C(O)CCCCCCCCCCCCCCCCC(=O)*; γGlu = O=C(O)[C@H](CCC(=O)[*:2])N[*:1]; hCys = N[C@@H](CCS)C(=O)O; AEEA = NCCOCCOCC(=O)O; Sar = CNCC(=O)O
B1: Compound 166 (peptide)
peptide: Ac-SEF[hCys]I[Trp(1-Me)]QDW[Sar]EHRA[Sar]EGE[AEEA]ESK([γGlu-Gly-γGlu-C18 diacid])-NH2
modifications: thioether 4-14
SMILES: CC[C@H](C)[C@@H]1NC(=O)[C@@H](NC(=O)[C@H](Cc2ccccc2)NC(=O)[C@H](CCC(=O)O)NC(=O)[C@H](CO)NC(C)=O)CCSC[C@@H](C(=O)N(C)CC(=O)N[C@@H](CCC(=O)O)C(=O)NCC(=O)N[C@@H](CCC(=O)O)C(=O)NCCOCCOCC(=O)N[C@@H](CCC(=O)O)C(=O)N[C@@H](CO)C(=O)N[C@@H](CCCCNC(=O)CC[C@H](NC(=O)CNC(=O)CC[C@H](NC(=O)CCCCCCCCCCCCCCCCC(=O)O)C(=O)O)C(=O)O)C(N)=O)NC(=O)[C@H](CCCNC(=N)N)NC(=O)[C@H](Cc2c[nH]cn2)NC(=O)[C@H](CCC(=O)O)NC(=O)CN(C)C(=O)[C@H](Cc2c[nH]c3ccccc23)NC(=O)[C@H](CC(=O)O)NC(=O)[C@H](CCC(N)=O)NC(=O)[C@H](Cc2cn(C)c3ccccc23)NC1=O
B2: Compound 14 (peptide)
peptide: Ac-ESSAICIWQDWGEHRCTGAES-NH2
modifications: disulfide 6-16
SMILES: CC[C@H](C)[C@H](NC(=O)[C@H](C)NC(=O)[C@H](CO)NC(=O)[C@H](CO)NC(=O)[C@H](CCC(=O)O)NC(C)=O)C(=O)N[C@H]1CSSC[C@@H](C(=O)N[C@H](C(=O)NCC(=O)N[C@@H](C)C(=O)N[C@@H](CCC(=O)O)C(=O)N[C@@H](CO)C(N)=O)[C@@H](C)O)NC(=O)[C@H](CCCNC(=N)N)NC(=O)[C@H](Cc2c[nH]cn2)NC(=O)[C@H](CCC(=O)O)NC(=O)CNC(=O)[C@H](Cc2c[nH]c3ccccc23)NC(=O)[C@H](CC(=O)O)NC(=O)[C@H](CCC(N)=O)NC(=O)[C@H](Cc2c[nH]c3ccccc23)NC(=O)[C@H]([C@@H](C)CC)NC1=O
B3: Compound 26 (peptide)
peptide: Ac-ICIWQDWGEHRCTE-NH2
modifications: disulfide 2-12
SMILES: CC[C@H](C)[C@H](NC(C)=O)C(=O)N[C@H]1CSSC[C@@H](C(=O)N[C@H](C(=O)N[C@@H](CCC(=O)O)C(N)=O)[C@@H](C)O)NC(=O)[C@H](CCCNC(=N)N)NC(=O)[C@H](Cc2c[nH]cn2)NC(=O)[C@H](CCC(=O)O)NC(=O)CNC(=O)[C@H](Cc2c[nH]c3ccccc23)NC(=O)[C@H](CC(=O)O)NC(=O)[C@H](CCC(N)=O)NC(=O)[C@H](Cc2c[nH]c3ccccc23)NC(=O)[C@H]([C@@H](C)CC)NC1=O
B4: Compound 22 (peptide)
peptide: Ac-ICIWQDWGEHRCE-NH2
modifications: disulfide 2-12
SMILES: CC[C@H](C)[C@H](NC(C)=O)C(=O)N[C@H]1CSSC[C@@H](C(=O)N[C@@H](CCC(=O)O)C(N)=O)NC(=O)[C@H](CCCNC(=N)N)NC(=O)[C@H](Cc2c[nH]cn2)NC(=O)[C@H](CCC(=O)O)NC(=O)CNC(=O)[C@H](Cc2c[nH]c3ccccc23)NC(=O)[C@H](CC(=O)O)NC(=O)[C@H](CCC(N)=O)NC(=O)[C@H](Cc2c[nH]c3ccccc23)NC(=O)[C@H]([C@@H](C)CC)NC1=O
B5: Compound 144 (peptide)
peptide: Ac-SEFCI[Trp(1-Me)]QDW[Sar]EHRC[Sar]E[AEEA][AEEA]K([γGlu-Gly-γGlu-C18 diacid])-NH2
modifications: disulfide 4-14
SMILES: CC[C@H](C)[C@@H]1NC(=O)[C@@H](NC(=O)[C@H](Cc2ccccc2)NC(=O)[C@H](CCC(=O)O)NC(=O)[C@H](CO)NC(C)=O)CSSC[C@@H](C(=O)N(C)CC(=O)N[C@@H](CCC(=O)O)C(=O)NCCOCCOCC(=O)NCCOCCOCC(=O)N[C@@H](CCCCNC(=O)CC[C@H](NC(=O)CNC(=O)CC[C@H](NC(=O)CCCCCCCCCCCCCCCCC(=O)O)C(=O)O)C(=O)O)C(N)=O)NC(=O)[C@H](CCCNC(=N)N)NC(=O)[C@H](Cc2c[nH]cn2)NC(=O)[C@H](CCC(=O)O)NC(=O)CN(C)C(=O)[C@H](Cc2c[nH]c3ccccc23)NC(=O)[C@H](CC(=O)O)NC(=O)[C@H](CCC(N)=O)NC(=O)[C@H](Cc2cn(C)c3ccccc23)NC1=O
B6: Compound 10 (peptide)
peptide: Ac-ESSAYCIWQDWGEHRCT-NH2
modifications: disulfide 6-16
SMILES: CC[C@H](C)[C@@H]1NC(=O)[C@@H](NC(=O)[C@H](Cc2ccc(O)cc2)NC(=O)[C@H](C)NC(=O)[C@H](CO)NC(=O)[C@H](CO)NC(=O)[C@H](CCC(=O)O)NC(C)=O)CSSC[C@@H](C(=O)N[C@H](C(N)=O)[C@@H](C)O)NC(=O)[C@H](CCCNC(=N)N)NC(=O)[C@H](Cc2c[nH]cn2)NC(=O)[C@H](CCC(=O)O)NC(=O)CNC(=O)[C@H](Cc2c[nH]c3ccccc23)NC(=O)[C@H](CC(=O)O)NC(=O)[C@H](CCC(N)=O)NC(=O)[C@H](Cc2c[nH]c3ccccc23)NC1=O
B7: Compound 12 (peptide)
peptide: Ac-ICIWQDWGAHRCE-NH2
modifications: disulfide 2-12
SMILES: CC[C@H](C)[C@H](NC(C)=O)C(=O)N[C@H]1CSSC[C@@H](C(=O)N[C@@H](CCC(=O)O)C(N)=O)NC(=O)[C@H](CCCNC(=N)N)NC(=O)[C@H](Cc2c[nH]cn2)NC(=O)[C@H](C)NC(=O)CNC(=O)[C@H](Cc2c[nH]c3ccccc23)NC(=O)[C@H](CC(=O)O)NC(=O)[C@H](CCC(N)=O)NC(=O)[C@H](Cc2c[nH]c3ccccc23)NC(=O)[C@H]([C@@H](C)CC)NC1=O
B8: Compound 9 (peptide)
peptide: Ac-YCIWQDWGEHRCT-NH2
modifications: disulfide 2-12
SMILES: CC[C@H](C)[C@@H]1NC(=O)[C@@H](NC(=O)[C@H](Cc2ccc(O)cc2)NC(C)=O)CSSC[C@@H](C(=O)N[C@H](C(N)=O)[C@@H](C)O)NC(=O)[C@H](CCCNC(=N)N)NC(=O)[C@H](Cc2c[nH]cn2)NC(=O)[C@H](CCC(=O)O)NC(=O)CNC(=O)[C@H](Cc2c[nH]c3ccccc23)NC(=O)[C@H](CC(=O)O)NC(=O)[C@H](CCC(N)=O)NC(=O)[C@H](Cc2c[nH]c3ccccc23)NC1=O
B9: Compound 18 (peptide)
peptide: Ac-ICIWQDWGRHRCT-NH2
modifications: disulfide 2-12
SMILES: CC[C@H](C)[C@H](NC(C)=O)C(=O)N[C@H]1CSSC[C@@H](C(=O)N[C@H](C(N)=O)[C@@H](C)O)NC(=O)[C@H](CCCNC(=N)N)NC(=O)[C@H](Cc2c[nH]cn2)NC(=O)[C@H](CCCNC(=N)N)NC(=O)CNC(=O)[C@H](Cc2c[nH]c3ccccc23)NC(=O)[C@H](CC(=O)O)NC(=O)[C@H](CCC(N)=O)NC(=O)[C@H](Cc2c[nH]c3ccccc23)NC(=O)[C@H]([C@@H](C)CC)NC1=O
B10: Compound 151 (peptide)
peptide: Ac-SEFAI[Trp(1-Me)]QDWGEHR[hCys]TGAES-NH2
modifications: thioether 4-14
SMILES: CC[C@H](C)[C@@H]1NC(=O)[C@@H](NC(=O)[C@H](Cc2ccccc2)NC(=O)[C@H](CCC(=O)O)NC(=O)[C@H](CO)NC(C)=O)CSCC[C@@H](C(=O)N[C@H](C(=O)NCC(=O)N[C@@H](C)C(=O)N[C@@H](CCC(=O)O)C(=O)N[C@@H](CO)C(N)=O)[C@@H](C)O)NC(=O)[C@H](CCCNC(=N)N)NC(=O)[C@H](Cc2c[nH]cn2)NC(=O)[C@H](CCC(=O)O)NC(=O)CNC(=O)[C@H](Cc2c[nH]c3ccccc23)NC(=O)[C@H](CC(=O)O)NC(=O)[C@H](CCC(N)=O)NC(=O)[C@H](Cc2cn(C)c3ccccc23)NC1=O
B11: Compound 16 (peptide)
peptide: Ac-ICIWQEWGEHRCT-NH2
modifications: disulfide 2-12
SMILES: CC[C@H](C)[C@H](NC(C)=O)C(=O)N[C@H]1CSSC[C@@H](C(=O)N[C@H](C(N)=O)[C@@H](C)O)NC(=O)[C@H](CCCNC(=N)N)NC(=O)[C@H](Cc2c[nH]cn2)NC(=O)[C@H](CCC(=O)O)NC(=O)CNC(=O)[C@H](Cc2c[nH]c3ccccc23)NC(=O)[C@H](CCC(=O)O)NC(=O)[C@H](CCC(N)=O)NC(=O)[C@H](Cc2c[nH]c3ccccc23)NC(=O)[C@H]([C@@H](C)CC)NC1=O
B12: Compound 25 (peptide)
peptide: Ac-ICIWQDWGEHRCTEA-NH2
modifications: disulfide 2-12
SMILES: CC[C@H](C)[C@H](NC(C)=O)C(=O)N[C@H]1CSSC[C@@H](C(=O)N[C@H](C(=O)N[C@@H](CCC(=O)O)C(=O)N[C@@H](C)C(N)=O)[C@@H](C)O)NC(=O)[C@H](CCCNC(=N)N)NC(=O)[C@H](Cc2c[nH]cn2)NC(=O)[C@H](CCC(=O)O)NC(=O)CNC(=O)[C@H](Cc2c[nH]c3ccccc23)NC(=O)[C@H](CC(=O)O)NC(=O)[C@H](CCC(N)=O)NC(=O)[C@H](Cc2c[nH]c3ccccc23)NC(=O)[C@H]([C@@H](C)CC)NC1=O
B13: Compound 17 (peptide)
peptide: Ac-ICIWQDWGDHRCT-NH2
modifications: disulfide 2-12
SMILES: CC[C@H](C)[C@H](NC(C)=O)C(=O)N[C@H]1CSSC[C@@H](C(=O)N[C@H](C(N)=O)[C@@H](C)O)NC(=O)[C@H](CCCNC(=N)N)NC(=O)[C@H](Cc2c[nH]cn2)NC(=O)[C@H](CC(=O)O)NC(=O)CNC(=O)[C@H](Cc2c[nH]c3ccccc23)NC(=O)[C@H](CC(=O)O)NC(=O)[C@H](CCC(N)=O)NC(=O)[C@H](Cc2c[nH]c3ccccc23)NC(=O)[C@H]([C@@H](C)CC)NC1=O
B14: Compound 161 (peptide)
peptide: Ac-EFAI[Trp(1-Me)]QDWGEHR[hCys]EGEK([γGlu-Gly-γGlu-C18 diacid])-NH2
modifications: thioether 3-13
SMILES: CC[C@H](C)[C@@H]1NC(=O)[C@@H](NC(=O)[C@H](Cc2ccccc2)NC(=O)[C@H](CCC(=O)O)NC(C)=O)CSCC[C@@H](C(=O)N[C@@H](CCC(=O)O)C(=O)NCC(=O)N[C@@H](CCC(=O)O)C(=O)N[C@@H](CCCCNC(=O)CC[C@H](NC(=O)CNC(=O)CC[C@H](NC(=O)CCCCCCCCCCCCCCCCC(=O)O)C(=O)O)C(=O)O)C(N)=O)NC(=O)[C@H](CCCNC(=N)N)NC(=O)[C@H](Cc2c[nH]cn2)NC(=O)[C@H](CCC(=O)O)NC(=O)CNC(=O)[C@H](Cc2c[nH]c3ccccc23)NC(=O)[C@H](CC(=O)O)NC(=O)[C@H](CCC(N)=O)NC(=O)[C@H](Cc2cn(C)c3ccccc23)NC1=O

Target: Human C3 (human, UniProt P01024 23-1663)
Test: cell-based or functional assay

Sequence of Human C3 (P01024 23-1663 limits assumed): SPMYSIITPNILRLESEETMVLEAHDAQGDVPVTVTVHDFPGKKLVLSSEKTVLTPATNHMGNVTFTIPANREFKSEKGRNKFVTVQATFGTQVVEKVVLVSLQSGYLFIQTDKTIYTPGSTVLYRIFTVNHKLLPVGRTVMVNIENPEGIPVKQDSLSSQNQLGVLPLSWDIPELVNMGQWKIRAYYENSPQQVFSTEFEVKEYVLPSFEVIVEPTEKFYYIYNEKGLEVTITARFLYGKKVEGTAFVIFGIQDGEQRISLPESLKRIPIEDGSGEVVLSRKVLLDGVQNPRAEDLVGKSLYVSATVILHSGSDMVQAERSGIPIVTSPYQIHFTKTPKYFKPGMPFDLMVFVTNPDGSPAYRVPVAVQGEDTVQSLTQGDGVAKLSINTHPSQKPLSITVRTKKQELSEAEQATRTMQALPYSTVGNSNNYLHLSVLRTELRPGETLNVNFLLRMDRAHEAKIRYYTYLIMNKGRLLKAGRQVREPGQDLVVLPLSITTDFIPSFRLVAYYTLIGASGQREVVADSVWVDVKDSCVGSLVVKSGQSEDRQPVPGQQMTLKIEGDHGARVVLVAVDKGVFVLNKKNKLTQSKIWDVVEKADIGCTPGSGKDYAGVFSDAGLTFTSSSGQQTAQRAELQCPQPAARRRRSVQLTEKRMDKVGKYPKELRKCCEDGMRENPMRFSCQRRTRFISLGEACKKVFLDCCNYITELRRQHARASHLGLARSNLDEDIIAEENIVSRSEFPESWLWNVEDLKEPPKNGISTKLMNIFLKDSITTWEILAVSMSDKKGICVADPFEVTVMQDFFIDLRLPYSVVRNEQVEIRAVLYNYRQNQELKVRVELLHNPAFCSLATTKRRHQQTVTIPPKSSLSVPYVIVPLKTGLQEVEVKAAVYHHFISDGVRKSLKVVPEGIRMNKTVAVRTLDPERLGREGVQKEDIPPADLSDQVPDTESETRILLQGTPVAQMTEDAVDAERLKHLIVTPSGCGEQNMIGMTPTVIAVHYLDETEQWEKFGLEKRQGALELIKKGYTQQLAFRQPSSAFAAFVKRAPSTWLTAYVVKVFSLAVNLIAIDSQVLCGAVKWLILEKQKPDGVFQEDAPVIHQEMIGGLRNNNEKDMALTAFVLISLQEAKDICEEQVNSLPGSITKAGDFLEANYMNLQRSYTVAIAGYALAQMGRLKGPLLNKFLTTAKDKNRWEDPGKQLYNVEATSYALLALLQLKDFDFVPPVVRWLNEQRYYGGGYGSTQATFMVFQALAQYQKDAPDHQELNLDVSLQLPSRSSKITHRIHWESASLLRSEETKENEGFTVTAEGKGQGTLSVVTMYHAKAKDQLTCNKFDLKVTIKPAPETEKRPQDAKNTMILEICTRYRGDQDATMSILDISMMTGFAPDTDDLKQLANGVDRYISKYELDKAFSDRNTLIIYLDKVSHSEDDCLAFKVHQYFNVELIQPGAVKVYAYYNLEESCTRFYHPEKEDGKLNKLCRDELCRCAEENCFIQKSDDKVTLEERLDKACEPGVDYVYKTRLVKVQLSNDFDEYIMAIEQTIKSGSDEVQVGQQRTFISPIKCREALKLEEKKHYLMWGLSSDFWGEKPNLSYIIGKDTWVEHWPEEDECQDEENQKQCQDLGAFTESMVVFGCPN

| Binder | IC50[nM], inhibition of hemolysis [nM] |
| --- | --- |
| B1 | < 100 |
| B2 | < 100 |
| B3 | < 100 |
| B4 | < 100 |
| B5 | < 100 |
| B6 | < 100 |
| B7 | < 100 |
| B8 | < 100 |
| B9 | < 100 |
| B10 | < 100 |
| B11 | < 100 |
| B12 | < 100 |
| B13 | < 100 |
| B14 | < 100 |
